Experimental findings from patent US20200325187A1 (Genentech, published 2020) are described below.

One data set addresses T1, Flt-4 (human, UniProt P35916 25-776, limits assumed).
T1 sequence (looked up): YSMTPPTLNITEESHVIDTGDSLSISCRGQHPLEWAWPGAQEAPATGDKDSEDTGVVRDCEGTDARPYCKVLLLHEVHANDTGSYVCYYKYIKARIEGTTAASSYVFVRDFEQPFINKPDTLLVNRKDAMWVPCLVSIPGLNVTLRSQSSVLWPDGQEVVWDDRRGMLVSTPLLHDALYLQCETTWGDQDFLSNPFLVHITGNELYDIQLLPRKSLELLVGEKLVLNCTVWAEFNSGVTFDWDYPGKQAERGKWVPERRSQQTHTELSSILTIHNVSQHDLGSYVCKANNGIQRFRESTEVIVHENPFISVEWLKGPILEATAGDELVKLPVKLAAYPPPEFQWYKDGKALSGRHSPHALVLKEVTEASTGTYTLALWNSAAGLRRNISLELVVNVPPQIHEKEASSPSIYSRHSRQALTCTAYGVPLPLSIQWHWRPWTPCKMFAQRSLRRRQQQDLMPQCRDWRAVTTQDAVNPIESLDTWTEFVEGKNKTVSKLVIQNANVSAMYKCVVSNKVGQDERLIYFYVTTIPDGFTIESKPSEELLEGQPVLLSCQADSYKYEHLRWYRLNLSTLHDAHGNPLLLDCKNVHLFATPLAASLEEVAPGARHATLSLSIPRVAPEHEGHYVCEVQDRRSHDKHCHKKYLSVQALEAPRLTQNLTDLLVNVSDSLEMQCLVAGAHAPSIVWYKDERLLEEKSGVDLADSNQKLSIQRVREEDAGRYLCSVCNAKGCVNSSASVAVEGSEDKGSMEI
Put plainly: plate ELISA, growth factor coated. The protocol:
(§1) Binding specificity of each peptide was established by competition ELISA. […] After blocking with block buffer (PBS with 0.5% BSA and 0.05% TWEEN®20) for 2 hours at room temperature, the receptor-Fc fusions or biotinylated receptors were serially diluted using assay buffer (PBS with 0.5% BSA and 0.05% TWEEN®20) and incubated for 1 hour at room temperature. […] Competition ELISA was conducted in an identical fashion as described above except after blocking, a mixture of serially diluted peptide containing a constant concentration of receptor-Fc fusion or biotinylated receptor (concentration of receptor was set to EC₆₀) was added and incubated for 1 hour. All recombinant human proteins and antibodies were purchased from R &D Systems (Minneapolis, Minn.).

Data set [1] concerns the target T2, hVEGF-A (8-109) (human, UniProt P15692 214-315).
T2 sequence (looked up): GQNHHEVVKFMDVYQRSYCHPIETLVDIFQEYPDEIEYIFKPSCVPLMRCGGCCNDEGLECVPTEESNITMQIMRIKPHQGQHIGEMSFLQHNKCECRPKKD
Briefly: SPR. As for the experimental part: (§2) Depending on the format of the assay either a streptavidin sensor (SA) or a dextran-coated (CM5) sensor was utilized as described below.
(§3) Reaction was then quenched by addition of 10 molar excess of Glycine pH 8.0 and the sample was buffer exchanged into PBS using an Amicon 0.5 mL 3000 MWCO ultra-centrifugal filters (EMD Millipore). The biotinylation state of the protein was verified by LC-MS analysis. Biotinylated VEGF-A was then captured on the surface until a resonance unit (RU) signal of about ˜400. For immobilization of VEGF-A on CM5 sensor, the surface was first activated with a mixture of N-ethyl-N′-(3-dimethylaminopropyl)carbodiimide hydrochloride and N-hydroxysuccinimide (EDC/NHS) according to the supplier instructions. VEGF-A was then diluted into coupling buffer (0.1 M Acetate Buffer, pH 5.0) and injected until the signal reached about ˜400 RU followed by a wash with 1 M ethanolamine pH 8.0 to quench remaining activated sites.

The target in the next data set is T3, hVEGF-A Q89A (human, UniProt P15692-4 34-135, Q89A).
T3 construct: position probably counted on the mature protein
T3 sequence (looked up): T2 sequence (looked up) with Q82A
Put plainly: SPR. The protocol: as §2, §3

The target in data set [2] is T4, hVEGF-A (human, UniProt P15692-4 27-191, limits assumed).
T4 construct: also called human VEGF-A; WT
Briefly: SPR. As for the experimental part:
as §2, §3

The target in another data set is T5, hVEGF-A Y21A (human, UniProt P15692-4 34-135, Y21A).
T5 construct: position probably counted on the mature protein
T5 sequence (looked up): T2 sequence (looked up) with Y14A
Briefly: SPR. As for the experimental part:
as §2, §3
A general note: SPR reads the build-up and loss of mass on a sensor chip optically.

A further data set concerns the target T6, hVEGF-A K48A (human, UniProt P15692-4 34-135, K48A).
T6 construct: position probably counted on the mature protein
T6 sequence (looked up): T2 sequence (looked up) with K41A
Briefly: SPR. As for the experimental part: as §2, §3

For data set [3], the target named is T2, hVEGF-A (8-109). Briefly: SPR. The protocol:
as §2, §3
This is another data set of the same source.

Another data set addresses human VEGF-A 165 (human, UniProt P15692-4 27-191). Put plainly: SPR. The protocol: as §2, §3
Another data set deals with T7, mouse VEGF-A 164 (mouse, UniProt Q00731-2 27-190).
T7 construct: also called mouse 164
T7 sequence (looked up): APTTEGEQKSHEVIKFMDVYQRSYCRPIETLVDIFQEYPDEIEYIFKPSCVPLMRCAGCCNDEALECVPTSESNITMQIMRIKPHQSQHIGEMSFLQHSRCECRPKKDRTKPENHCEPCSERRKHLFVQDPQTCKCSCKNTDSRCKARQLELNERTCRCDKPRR
Briefly: SPR. As for the experimental part: as §2, §3

The next data set concerns the target T8, rat VEGF-A (rat, UniProt P16612-2 27-190, limits assumed).
T8 construct: also called rVEGF
T8 sequence (looked up): T7 sequence (looked up) with S10A, I14V, I75V
Put plainly: SPR. As for the experimental part: as §2, §3

The target in another data set is T9, rabbit VEGF-A (rabbit, UniProt G1T1L9 1-398).
T9 sequence: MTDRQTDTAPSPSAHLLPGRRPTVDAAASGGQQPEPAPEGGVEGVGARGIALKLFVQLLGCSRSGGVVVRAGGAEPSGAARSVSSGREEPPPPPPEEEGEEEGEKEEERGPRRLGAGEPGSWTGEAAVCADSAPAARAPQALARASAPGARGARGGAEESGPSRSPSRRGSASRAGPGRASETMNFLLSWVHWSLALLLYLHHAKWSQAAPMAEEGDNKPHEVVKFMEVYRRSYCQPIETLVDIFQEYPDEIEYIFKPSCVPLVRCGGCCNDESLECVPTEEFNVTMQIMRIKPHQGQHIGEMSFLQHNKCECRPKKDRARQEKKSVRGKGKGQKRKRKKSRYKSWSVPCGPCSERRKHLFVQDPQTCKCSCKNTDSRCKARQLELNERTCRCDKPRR
Put plainly: SPR. The protocol: as §2, §3

In data set [4] the target is T2, hVEGF-A (8-109). Put plainly: spot phage ELISA. The essentials: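 Phage clones from four selection rounds were grown overnight at 37 °C with M13-KO7 helper phage. Bound phage was detected with anti-M13-HRP and TMB, with binding to BSA alone run in parallel as background.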
The target in data set [5] is T4, hVEGF-A. Put plainly: cell-based or functional assay.
Data set [6] concerns the target T4, hVEGF-A. Put plainly: cell-based or functional assay. The source holds these as a separate data set.
Data set [7] concerns the target T4, hVEGF-A. Briefly: KDR-VEGF competition ELISA. (In general: In an ELISA, binding on a coated surface is turned into a signal by an enzyme label.)
Data set [8] has as its target T4, hVEGF-A. Briefly: phage competition ELISA, soluble CKP.
The target in another data set is Flt-1 (human, UniProt P17948 27-756, limits assumed). Put plainly: plate ELISA, growth factor coated. The protocol:
as §1

In a further data set the target is T10, hVEGF-A (human), P15692.
T10 chain: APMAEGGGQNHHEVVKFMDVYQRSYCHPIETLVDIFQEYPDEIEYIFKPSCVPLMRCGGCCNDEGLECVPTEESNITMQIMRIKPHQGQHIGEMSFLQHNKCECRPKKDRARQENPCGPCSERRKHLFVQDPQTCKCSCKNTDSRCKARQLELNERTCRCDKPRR
Briefly: cell-based or functional assay.

Numbering of substitutions follows the chain as printed. Read-outs that look alike come from different tables or passages of the source. Non-standard residues stand in square brackets, D forms with d. No end group written: not given here. Nle = CCCC[C@H](N)C(=O)O

As a reminder, the Kd is the free concentration of one partner at which half of the binding sites on the other are occupied at equilibrium, for simple one-to-one binding. As a reminder, the IC50 is the point on the concentration scale where inhibition reaches its midpoint. A higher IC50 goes with lower potency.

Flt-1, sequence (P17948 27-756 limits assumed): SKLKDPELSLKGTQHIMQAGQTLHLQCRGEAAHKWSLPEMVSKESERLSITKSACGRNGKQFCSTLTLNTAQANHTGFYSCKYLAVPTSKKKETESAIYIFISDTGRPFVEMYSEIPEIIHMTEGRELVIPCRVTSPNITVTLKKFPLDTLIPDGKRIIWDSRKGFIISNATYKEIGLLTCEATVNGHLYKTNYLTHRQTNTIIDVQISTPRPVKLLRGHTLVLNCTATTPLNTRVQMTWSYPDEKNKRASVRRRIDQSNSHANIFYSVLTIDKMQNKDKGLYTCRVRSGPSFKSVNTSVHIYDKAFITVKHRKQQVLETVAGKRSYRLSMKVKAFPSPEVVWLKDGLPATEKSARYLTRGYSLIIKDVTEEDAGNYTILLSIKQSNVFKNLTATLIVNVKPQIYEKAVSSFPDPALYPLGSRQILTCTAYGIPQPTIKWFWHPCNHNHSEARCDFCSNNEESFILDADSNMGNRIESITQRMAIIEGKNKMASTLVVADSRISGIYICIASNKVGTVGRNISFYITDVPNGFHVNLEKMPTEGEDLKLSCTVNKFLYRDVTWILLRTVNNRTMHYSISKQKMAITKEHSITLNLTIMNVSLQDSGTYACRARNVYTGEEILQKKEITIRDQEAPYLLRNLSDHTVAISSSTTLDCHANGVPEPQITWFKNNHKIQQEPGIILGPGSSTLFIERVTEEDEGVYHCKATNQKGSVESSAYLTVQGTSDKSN
EETI-II, sequence (chain, as listed by the source): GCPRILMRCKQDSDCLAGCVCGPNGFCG

As for trypsin, the “trypsin protease activity, peptide substrate cleavage assay” value with EETI-II is listed as “Unlike EETI-II, ... do not inhibit trypsin protease activity”.

B1: VEGF-D (ligand, human, UniProt O43915 93-201, looked up)
chain: FYDIETLKVIDEEWQRTQCSPRETCVEVASELGKSTNTFFKPPCVNVFRCGGCCNEESLICMNTSTSYISKQLFEISVPLTSVPELVPVKVANHTGCKCLPTAPRHPYS
As to B1, in the data set with Flt-4, the binding result is on record as “binds”.
Consider GCDVMQPYWGCKQDSDCLAGCVCHWYNSCG (designed binder, also called EM63) [VEGF_CKP9.63], for which the Kd in the data set with hVEGF-A (8-109) [1] stood at 100 nM; with hVEGF-A Q89A it was 2000 nM; in the data set with hVEGF-A [2] it was 100 nM; with hVEGF-A Y21A, 585 nM; with hVEGF-A K48A, 28.4 nM; with hVEGF-A (8-109) [3] it was 281 nM. Also, the Kd came to 382 nM with human VEGF-A 165, 289 nM with mouse VEGF-A 164, 524 nM in the data set with rat VEGF-A and 311 nM with rabbit VEGF-A. Also, the ELISA with hVEGF-A (8-109) [4] turned out to be 2. Moreover, the “S/N vs BSA” value with hVEGF-A (8-109) [4] was 29.7. The “Cellular IC50” value in the data set with hVEGF-A [5] and with hVEGF-A [6] was 140 nM in each case. Further, the IC50 came out at 10.8 nM in the data set with hVEGF-A [7] and 146 nM with hVEGF-A [8].

B2: PIGF-2 (ligand, human, UniProt P49763-3 19-170, looked up)
chain: LPAVPPQQWALSAGNGSSEVEVVPFQEVWGRSYCRALERLVDVVSEYPSEVEHMFSPSCVSLLRCTGCCGDENLHCVPVETANVTMQLLKIRSGDRPSYVELTFSQHVRCECRPLREKMKPERRRPKGRGKRRREKQRPTDCHLCGDAVPRR
notes: also called P1Gf-2; P1GF
As for B2, in the data set with Flt-1, the binding result is given as “binds”.

B3: VEGF-C (ligand, human, UniProt P49767 103-227, looked up)
chain: TEETIKFAAAHYNTEILKSIDNEWRKTQCMPREVCIDVGKEFGVATNTFFKPPCVSVYRCGGCCNSEGLQCMNTSTSYLSKTLFEITVPLSQGPKPVTISFANHTSCRCMSKLDVYRQVHSIIRR
Regarding B3, the binding result with Flt-4 is recorded as “binds”.
Consider GCNI[Nle]LPFWGCGRDFECLAGCVCQYYQSCG (designed binder, cysteine pairing not given here) [9.54.90.M5.Nle], for which the Cellular IC50 with hVEGF-A (human), P15692 worked out at 1.95 nM.
